Source: patent US20260285998 (published 2026)

T1: human BCMA-Fc (human)
T1 chain: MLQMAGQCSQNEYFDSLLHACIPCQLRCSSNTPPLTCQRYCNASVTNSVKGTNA


What was measured:
human BCMA-Fc = biological target: T1, human BCMA-Fc; assay: SPR, 25C
cynomolgus BCMA-Fc = cynomolgus BCMA-Fc (cynomolgus); assay: SPR, 25C
Sequence of cynomolgus BCMA-Fc (cynomolgus) (chain, as listed by the source): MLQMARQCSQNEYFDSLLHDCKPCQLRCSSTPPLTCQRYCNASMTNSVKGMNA

Row | Binder | Kd (human BCMA-Fc) | Kd (cynomolgus BCMA-Fc)
1 | P1AG5007 (E04_VH1a/VL1e) (antibody, V domains shown) VH: QVQLVQSGAEVKKPGASVKVSCKASGYTFTNYWMHWVRQAPGQGLEWMGIIHPNSGSTNYNEKFQGRVTMTRDTSTSTVYMELSSLRSEDTAVYYCARGIYDYPFAYWGQGTLVTVSS VL: DIQMTQSPSSLSASVGDRVTITCRASESVSIHGTHLMHWYQQKPGKAPKLLIYAASSLQSGVPSRFSGSGSGTDFTLTISSLQPEDFATYYCQQSIEDPYTFGGGTKVEIK | 3 nM | 12 nM
2 | P1AG5044 (E04_VH1b/VL1b) (antibody, V domains shown) VH: QVQLVQSGAEVKKPGASVKVSCKASGYTFTNYWMHWVRQAPGQGLEWMGIIHPNSGSTNYNEKFQGRVTMTVDKSTSTVYMELSSLRSEDTAVYYCARGIYDYPFAYWGQGTLVTVSS VL: DIQMTQSPSSLSASVGDRVTITCRASESVSIHGTHLMHWYQQKPGKAPKLLIYAASNLESGVPSRFSGSGSETDFTLTISSLQPEDFATYYCQQSIEDPYTFGGGTKVEIK | 1.8 nM | 20 nM
3 | P1AG5053 (E04_VH1a/VL1h) (antibody, V domains shown) VH: QVQLVQSGAEVKKPGASVKVSCKASGYTFTNYWMHWVRQAPGQGLEWMGIIHPNSGSTNYNEKFQGRVTMTRDTSTSTVYMELSSLRSEDTAVYYCARGIYDYPFAYWGQGTLVTVSS VL: DIQMTQSPSSLSASVGDRVTITCRASESVSIHGTHLMHWYQQKPGKAPKLLIYAASNLESGVPSRFSGSGSETDFTLTISSLQPEDFATYFCQQSIEDPYTFGGGTKVEIK | 2.4 nM | 13 nM
4 | P1AG5078 (E04_VH1b/VL1d) (antibody, V domains shown) VH: QVQLVQSGAEVKKPGASVKVSCKASGYTFTNYWMHWVRQAPGQGLEWMGIIHPNSGSTNYNEKFQGRVTMTVDKSTSTVYMELSSLRSEDTAVYYCARGIYDYPFAYWGQGTLVTVSS VL: DIQMTQSPSSLSASVGDRVTITCRASESVSIHGTHLMHWYQQKPGKAPKLLIYAASNLQSGVPSRFSGSGSETDFTLTISSLQPEDFATYYCQQSIEDPYTFGGGTKVEIK | 2.4 nM | 22 nM
5 | P1AG5004 (E04_VH1a/VL1b) (antibody, V domains shown) VH: QVQLVQSGAEVKKPGASVKVSCKASGYTFTNYWMHWVRQAPGQGLEWMGIIHPNSGSTNYNEKFQGRVTMTRDTSTSTVYMELSSLRSEDTAVYYCARGIYDYPFAYWGQGTLVTVSS VL: DIQMTQSPSSLSASVGDRVTITCRASESVSIHGTHLMHWYQQKPGKAPKLLIYAASNLESGVPSRFSGSGSETDFTLTISSLQPEDFATYYCQQSIEDPYTFGGGTKVEIK | 2.5 nM | 16 nM
6 | P1AG5063 (E04_VH1a/VL1a) (antibody, V domains shown) VH: QVQLVQSGAEVKKPGASVKVSCKASGYTFTNYWMHWVRQAPGQGLEWMGIIHPNSGSTNYNEKFQGRVTMTRDTSTSTVYMELSSLRSEDTAVYYCARGIYDYPFAYWGQGTLVTVSS VL: DIQMTQSPSSLSASVGDRVTITCRASESVSIHGTHLMHWYQQKPGKAPKLLIYAASNLESGVPSRFSGSGSGTDFTLTISSLQPEDFATYYCQQSIEDPYTFGGGTKVEIK | 1.6 nM | 28 nM
7 | P1AG5076 (E04_VH1b/VL1h) (antibody, V domains shown) VH: QVQLVQSGAEVKKPGASVKVSCKASGYTFTNYWMHWVRQAPGQGLEWMGIIHPNSGSTNYNEKFQGRVTMTVDKSTSTVYMELSSLRSEDTAVYYCARGIYDYPFAYWGQGTLVTVSS VL: DIQMTQSPSSLSASVGDRVTITCRASESVSIHGTHLMHWYQQKPGKAPKLLIYAASNLESGVPSRFSGSGSETDFTLTISSLQPEDFATYFCQQSIEDPYTFGGGTKVEIK | 1.9 nM | 23 nM
8 | P1AG5036 (E04_VH1a/VL1f) (antibody, V domains shown) VH: QVQLVQSGAEVKKPGASVKVSCKASGYTFTNYWMHWVRQAPGQGLEWMGIIHPNSGSTNYNEKFQGRVTMTRDTSTSTVYMELSSLRSEDTAVYYCARGIYDYPFAYWGQGTLVTVSS VL: DIQMTQSPSSLSASVGDRVTITCRASESVSIHGTHLMHWYQQKPGKAPKLLIYAASSLQSGVPSRFSGSGSETDFTLTISSLQPEDFATYYCQQSIEDPYTFGGGTKVEIK | 2.9 nM | 9.5 nM
9 | P1AG5062 (E04 parental) (antibody, V domains shown) VH: QVQLQQPGAELVKPGASVKLSCKASGYTFTNYWMHWVKQRPGQGLEWIGIIHPNSGSTNYNEKFKSKATLTVDKSSSTAYMQLSSLTSEDSAVYYCARGIYDYPFAYWGQGTLVTVSS VL: DIVLTQSPASLAVSLGQRATISCRASESVSIHGTHLMHWYQQKPGQPPKLLIYAASNLESGVPARFSGSGSETDFTLNIHPVEEEDAATYFCQQSIEDPYTFGGGTKLEIK | 3.1 nM | 33 nM
10 | P1AG5031 (54_VH2a/VL2a) (antibody, V domains shown) VH: EVQLLESGGGLVQPGGSLRLSCAASGFTFSNAWMDWVRQAPGKGLEWVSQITAKSNNYATYYADSVKGRFTISRDNSKNTLYLQMNSLRAEDTAVYYCTDDGYHWGQGTLVTVSS VL: DIQMTQSPSSLSASVGDRVTITCRASEDIRNGLAWYQQKPGKAPKLLIYNANSLHTGVPSRFSGSGSGTDFTLTISSLQPEDFATYYCEDTSKYPYTFGQGTKLEIK | 2.4 nM | 4.7 nM
11 | P1AG5056 (54_VH1b/VL1a_N651A) (antibody, V domains shown) VH: EVQLVESGGGLVKPGGSLRLSCAASGFTFSNAWMDWVRQAPGKGLEWIAQITAKSNNYATYYAAPVKGRFTISRDDSKNTLYLQMNSLKTEDTAVYYCTDDGYHWGQGTLVTVSS VL: AIQMTQSPSSLSASVGDRVTITCRASEDIRNGLAWYQQKPGKAPKLLIYAANSLHTGVPSRFSGSGSGTDFTLTISSLQPEDFATYYCEDTSKYPYTFGQGTKLEIK | 4.2 nM | 13 nM
12 | P1AG5057 (54_VH1a_Y292D/VL1a) (antibody, V domains shown) VH: EVQLVESGGGLVKPGGSLRLSCAASGFTFSNAWMDWVRQAPGKGLEWVGQITAKSNNYATDYAAPVKGRFTISRDDSKNTLYLQMNSLKTEDTAVYYCTDDGYHWGQGTLVTVSS VL: AIQMTQSPSSLSASVGDRVTITCRASEDIRNGLAWYQQKPGKAPKLLIYNANSLHTGVPSRFSGSGSGTDFTLTISSLQPEDFATYYCEDTSKYPYTFGQGTKLEIK | 1.7 nM | 4 nM
13 | P1AG5071 (54_VH2a/VL1a_T699S) (antibody, V domains shown) VH: EVQLLESGGGLVQPGGSLRLSCAASGFTFSNAWMDWVRQAPGKGLEWVSQITAKSNNYATYYADSVKGRFTISRDNSKNTLYLQMNSLRAEDTAVYYCTDDGYHWGQGTLVTVSS VL: AIQMTQSPSSLSASVGDRVTITCRASEDIRNGLAWYQQKPGKAPKLLIYNANSLHSGVPSRFSGSGSGTDFTLTISSLQPEDFATYYCEDTSKYPYTFGQGTKLEIK | 3.4 nM | 6.5 nM
14 | P1AG5013 (54_VH2a/VL1a_L1_pGL) (antibody, V domains shown) VH: EVQLLESGGGLVQPGGSLRLSCAASGFTFSNAWMDWVRQAPGKGLEWVSQITAKSNNYATYYADSVKGRFTISRDNSKNTLYLQMNSLRAEDTAVYYCTDDGYHWGQGTLVTVSS VL: AIQMTQSPSSLSASVGDRVTITCRASEDIRNDLGWYQQKPGKAPKLLIYNANSLHTGVPSRFSGSGSGTDFTLTISSLQPEDFATYYCEDTSKYPYTFGQGTKLEIK | 2.4 nM | 1.9 nM
15 | P1AG5061 (54 parental) (antibody, V domains shown) VH: EVQLVESGGGLVKPGESLRLSCAASGFTFSNAWMDWVRQAPGKRLEWIAQITAKSNNYATYYAAPVKGRFTISRDDSKNTLYLQMNSLKKEDTAVYYCTDDGYHWGQGTLVTVSS VL: AIQMTQSPSSLSASVGDRVTIACRASEDIRNGLAWYQQKPGKAPKLLIYNANSLHTGVPSRFSGSGSGTDFTLTISSLQPEDEAIYYCEDTSKYPYTFGQGTKLEIK | 1.4 nM | 1.9 nM
16 | P1AG5065 (54_VH1a_Y292D/VL1a_T699S) (antibody, V domains shown) VH: EVQLVESGGGLVKPGGSLRLSCAASGFTFSNAWMDWVRQAPGKGLEWVGQITAKSNNYATDYAAPVKGRFTISRDDSKNTLYLQMNSLKTEDTAVYYCTDDGYHWGQGTLVTVSS VL: AIQMTQSPSSLSASVGDRVTITCRASEDIRNGLAWYQQKPGKAPKLLIYNANSLHSGVPSRFSGSGSGTDFTLTISSLQPEDFATYYCEDTSKYPYTFGQGTKLEIK | 2.6 nM | 6.4 nM
17 | P1AG5080 (54_VH1a_Y292D/VL2a) (antibody, V domains shown) VH: EVQLVESGGGLVKPGGSLRLSCAASGFTFSNAWMDWVRQAPGKGLEWVGQITAKSNNYATDYAAPVKGRFTISRDDSKNTLYLQMNSLKTEDTAVYYCTDDGYHWGQGTLVTVSS VL: DIQMTQSPSSLSASVGDRVTITCRASEDIRNGLAWYQQKPGKAPKLLIYNANSLHTGVPSRFSGSGSGTDFTLTISSLQPEDFATYYCEDTSKYPYTFGQGTKLEIK | 1.3 nM | 4.3 nM
18 | P1AG5027 (54_VH1b/VL1a_L1_pGL) (antibody, V domains shown) VH: EVQLVESGGGLVKPGGSLRLSCAASGFTFSNAWMDWVRQAPGKGLEWIAQITAKSNNYATYYAAPVKGRFTISRDDSKNTLYLQMNSLKTEDTAVYYCTDDGYHWGQGTLVTVSS VL: AIQMTQSPSSLSASVGDRVTITCRASEDIRNDLGWYQQKPGKAPKLLIYNANSLHTGVPSRFSGSGSGTDFTLTISSLQPEDFATYYCEDTSKYPYTFGQGTKLEIK | 1.7 nM | 1.2 nM
19 | P1AG5072 (54_VH1b/VL1a) (antibody, V domains shown) VH: EVQLVESGGGLVKPGGSLRLSCAASGFTFSNAWMDWVRQAPGKGLEWIAQITAKSNNYATYYAAPVKGRFTISRDDSKNTLYLQMNSLKTEDTAVYYCTDDGYHWGQGTLVTVSS VL: AIQMTQSPSSLSASVGDRVTITCRASEDIRNGLAWYQQKPGKAPKLLIYNANSLHTGVPSRFSGSGSGTDFTLTISSLQPEDFATYYCEDTSKYPYTFGQGTKLEIK | 1.3 nM | 3.2 nM
20 | P1AG5046 (54_VH1b/VL1a_T699S) (antibody, V domains shown) VH: EVQLVESGGGLVKPGGSLRLSCAASGFTFSNAWMDWVRQAPGKGLEWIAQITAKSNNYATYYAAPVKGRFTISRDDSKNTLYLQMNSLKTEDTAVYYCTDDGYHWGQGTLVTVSS VL: AIQMTQSPSSLSASVGDRVTITCRASEDIRNGLAWYQQKPGKAPKLLIYNANSLHSGVPSRFSGSGSGTDFTLTISSLQPEDFATYYCEDTSKYPYTFGQGTKLEIK | 1.9 nM | 3.9 nM
21 | P1AG5064 (54_VH1b/VL1a_N651A_N695S) (antibody, V domains shown) VH: EVQLVESGGGLVKPGGSLRLSCAASGFTFSNAWMDWVRQAPGKGLEWIAQITAKSNNYATYYAAPVKGRFTISRDDSKNTLYLQMNSLKTEDTAVYYCTDDGYHWGQGTLVTVSS VL: AIQMTQSPSSLSASVGDRVTITCRASEDIRNGLAWYQQKPGKAPKLLIYAASSLHTGVPSRFSGSGSGTDFTLTISSLQPEDFATYYCEDTSKYPYTFGQGTKLEIK | 3.5 nM | 13 nM
